*1 amine or outer side, *2 acyl side, *3 side chain or, on linkers, in order; H or OH if unused. Side-chain parts run from the residue outwards. The star is where a group is joined. C18 diacid = O=C(O)CCCCCCCCCCCCCCCCC(=O)*; γGlu = O=C(O)[C@H](CCC(=O)[*:2])N[*:1]; Isovaleryl = CC(C)CC(=O)*; AEEA = NCCOCCOCC(=O)O

Data on six molecules can be found in patent publication US20210139548A1 (published 2021).

The labels stand for the following.
B1: Compound 180 (peptide)
peptide: Isovaleryl-APEK([AEEA-AEEA-γGlu-C18 diacid])PEEDASPEETQQYYVSLRHYYNWLTRQRY-NH2
SMILES: CC(C)CC(=O)N[C@@H](C)C(=O)N1CCC[C@H]1C(=O)N[C@@H](CCC(=O)O)C(=O)N[C@@H](CCCCNC(=O)COCCOCCNC(=O)COCCOCCNC(=O)CC[C@H](NC(=O)CCCCCCCCCCCCCCCCC(=O)O)C(=O)O)C(=O)N1CCC[C@H]1C(=O)N[C@@H](CCC(=O)O)C(=O)N[C@@H](CCC(=O)O)C(=O)N[C@@H](CC(=O)O)C(=O)N[C@@H](C)C(=O)N[C@@H](CO)C(=O)N1CCC[C@H]1C(=O)N[C@@H](CCC(=O)O)C(=O)N[C@@H](CCC(=O)O)C(=O)N[C@H](C(=O)N[C@@H](CCC(N)=O)C(=O)N[C@@H](CCC(N)=O)C(=O)N[C@@H](Cc1ccc(O)cc1)C(=O)N[C@@H](Cc1ccc(O)cc1)C(=O)N[C@H](C(=O)N[C@@H](CO)C(=O)N[C@@H](CC(C)C)C(=O)N[C@@H](CCCNC(=N)N)C(=O)N[C@@H](Cc1c[nH]cn1)C(=O)N[C@@H](Cc1ccc(O)cc1)C(=O)N[C@@H](Cc1ccc(O)cc1)C(=O)N[C@@H](CC(N)=O)C(=O)N[C@@H](Cc1c[nH]c2ccccc12)C(=O)N[C@@H](CC(C)C)C(=O)N[C@H](C(=O)N[C@@H](CCCNC(=N)N)C(=O)N[C@@H](CCC(N)=O)C(=O)N[C@@H](CCCNC(=N)N)C(=O)N[C@@H](Cc1ccc(O)cc1)C(N)=O)[C@@H](C)O)C(C)C)[C@@H](C)O
B2: Compound 184 (peptide)
peptide: Isovaleryl-APEK([AEEA-AEEA-γGlu-C18 diacid])PEEAASPEELQRYYVTLRHYYNWLTRQRY-NH2
SMILES: CC(C)CC(=O)N[C@@H](C)C(=O)N1CCC[C@H]1C(=O)N[C@@H](CCC(=O)O)C(=O)N[C@@H](CCCCNC(=O)COCCOCCNC(=O)COCCOCCNC(=O)CC[C@H](NC(=O)CCCCCCCCCCCCCCCCC(=O)O)C(=O)O)C(=O)N1CCC[C@H]1C(=O)N[C@@H](CCC(=O)O)C(=O)N[C@@H](CCC(=O)O)C(=O)N[C@@H](C)C(=O)N[C@@H](C)C(=O)N[C@@H](CO)C(=O)N1CCC[C@H]1C(=O)N[C@@H](CCC(=O)O)C(=O)N[C@@H](CCC(=O)O)C(=O)N[C@@H](CC(C)C)C(=O)N[C@@H](CCC(N)=O)C(=O)N[C@@H](CCCNC(=N)N)C(=O)N[C@@H](Cc1ccc(O)cc1)C(=O)N[C@@H](Cc1ccc(O)cc1)C(=O)N[C@H](C(=O)N[C@H](C(=O)N[C@@H](CC(C)C)C(=O)N[C@@H](CCCNC(=N)N)C(=O)N[C@@H](Cc1c[nH]cn1)C(=O)N[C@@H](Cc1ccc(O)cc1)C(=O)N[C@@H](Cc1ccc(O)cc1)C(=O)N[C@@H](CC(N)=O)C(=O)N[C@@H](Cc1c[nH]c2ccccc12)C(=O)N[C@@H](CC(C)C)C(=O)N[C@H](C(=O)N[C@@H](CCCNC(=N)N)C(=O)N[C@@H](CCC(N)=O)C(=O)N[C@@H](CCCNC(=N)N)C(=O)N[C@@H](Cc1ccc(O)cc1)C(N)=O)[C@@H](C)O)[C@@H](C)O)C(C)C
B3: Compound 185 (peptide)
peptide: Isovaleryl-APEK([AEEA-AEEA-γGlu-C18 diacid])PEEEASPEELQRYYVELRHYYNWLTRQRY-NH2
SMILES: CC(C)CC(=O)N[C@@H](C)C(=O)N1CCC[C@H]1C(=O)N[C@@H](CCC(=O)O)C(=O)N[C@@H](CCCCNC(=O)COCCOCCNC(=O)COCCOCCNC(=O)CC[C@H](NC(=O)CCCCCCCCCCCCCCCCC(=O)O)C(=O)O)C(=O)N1CCC[C@H]1C(=O)N[C@@H](CCC(=O)O)C(=O)N[C@@H](CCC(=O)O)C(=O)N[C@@H](CCC(=O)O)C(=O)N[C@@H](C)C(=O)N[C@@H](CO)C(=O)N1CCC[C@H]1C(=O)N[C@@H](CCC(=O)O)C(=O)N[C@@H](CCC(=O)O)C(=O)N[C@@H](CC(C)C)C(=O)N[C@@H](CCC(N)=O)C(=O)N[C@@H](CCCNC(=N)N)C(=O)N[C@@H](Cc1ccc(O)cc1)C(=O)N[C@@H](Cc1ccc(O)cc1)C(=O)N[C@H](C(=O)N[C@@H](CCC(=O)O)C(=O)N[C@@H](CC(C)C)C(=O)N[C@@H](CCCNC(=N)N)C(=O)N[C@@H](Cc1c[nH]cn1)C(=O)N[C@@H](Cc1ccc(O)cc1)C(=O)N[C@@H](Cc1ccc(O)cc1)C(=O)N[C@@H](CC(N)=O)C(=O)N[C@@H](Cc1c[nH]c2ccccc12)C(=O)N[C@@H](CC(C)C)C(=O)N[C@H](C(=O)N[C@@H](CCCNC(=N)N)C(=O)N[C@@H](CCC(N)=O)C(=O)N[C@@H](CCCNC(=N)N)C(=O)N[C@@H](Cc1ccc(O)cc1)C(N)=O)[C@@H](C)O)C(C)C
B4: Compound 181 (peptide)
peptide: Isovaleryl-APEK([AEEA-AEEA-γGlu-C18 diacid])PEADASPEELQRYYVALRHYYNWLTRQRY-NH2
SMILES: CC(C)CC(=O)N[C@@H](C)C(=O)N1CCC[C@H]1C(=O)N[C@@H](CCC(=O)O)C(=O)N[C@@H](CCCCNC(=O)COCCOCCNC(=O)COCCOCCNC(=O)CC[C@H](NC(=O)CCCCCCCCCCCCCCCCC(=O)O)C(=O)O)C(=O)N1CCC[C@H]1C(=O)N[C@@H](CCC(=O)O)C(=O)N[C@@H](C)C(=O)N[C@@H](CC(=O)O)C(=O)N[C@@H](C)C(=O)N[C@@H](CO)C(=O)N1CCC[C@H]1C(=O)N[C@@H](CCC(=O)O)C(=O)N[C@@H](CCC(=O)O)C(=O)N[C@@H](CC(C)C)C(=O)N[C@@H](CCC(N)=O)C(=O)N[C@@H](CCCNC(=N)N)C(=O)N[C@@H](Cc1ccc(O)cc1)C(=O)N[C@@H](Cc1ccc(O)cc1)C(=O)N[C@H](C(=O)N[C@@H](C)C(=O)N[C@@H](CC(C)C)C(=O)N[C@@H](CCCNC(=N)N)C(=O)N[C@@H](Cc1c[nH]cn1)C(=O)N[C@@H](Cc1ccc(O)cc1)C(=O)N[C@@H](Cc1ccc(O)cc1)C(=O)N[C@@H](CC(N)=O)C(=O)N[C@@H](Cc1c[nH]c2ccccc12)C(=O)N[C@@H](CC(C)C)C(=O)N[C@H](C(=O)N[C@@H](CCCNC(=N)N)C(=O)N[C@@H](CCC(N)=O)C(=O)N[C@@H](CCCNC(=N)N)C(=O)N[C@@H](Cc1ccc(O)cc1)C(N)=O)[C@@H](C)O)C(C)C
B5: Compound 183 (peptide)
peptide: Isovaleryl-APEK([AEEA-AEEA-γGlu-C18 diacid])PPEDASPEELQRYYVSLRHYYNWLTRQRY-NH2
SMILES: CC(C)CC(=O)N[C@@H](C)C(=O)N1CCC[C@H]1C(=O)N[C@@H](CCC(=O)O)C(=O)N[C@@H](CCCCNC(=O)COCCOCCNC(=O)COCCOCCNC(=O)CC[C@H](NC(=O)CCCCCCCCCCCCCCCCC(=O)O)C(=O)O)C(=O)N1CCC[C@H]1C(=O)N1CCC[C@H]1C(=O)N[C@@H](CCC(=O)O)C(=O)N[C@@H](CC(=O)O)C(=O)N[C@@H](C)C(=O)N[C@@H](CO)C(=O)N1CCC[C@H]1C(=O)N[C@@H](CCC(=O)O)C(=O)N[C@@H](CCC(=O)O)C(=O)N[C@@H](CC(C)C)C(=O)N[C@@H](CCC(N)=O)C(=O)N[C@@H](CCCNC(=N)N)C(=O)N[C@@H](Cc1ccc(O)cc1)C(=O)N[C@@H](Cc1ccc(O)cc1)C(=O)N[C@H](C(=O)N[C@@H](CO)C(=O)N[C@@H](CC(C)C)C(=O)N[C@@H](CCCNC(=N)N)C(=O)N[C@@H](Cc1c[nH]cn1)C(=O)N[C@@H](Cc1ccc(O)cc1)C(=O)N[C@@H](Cc1ccc(O)cc1)C(=O)N[C@@H](CC(N)=O)C(=O)N[C@@H](Cc1c[nH]c2ccccc12)C(=O)N[C@@H](CC(C)C)C(=O)N[C@H](C(=O)N[C@@H](CCCNC(=N)N)C(=O)N[C@@H](CCC(N)=O)C(=O)N[C@@H](CCCNC(=N)N)C(=O)N[C@@H](Cc1ccc(O)cc1)C(N)=O)[C@@H](C)O)C(C)C
B6: Compound 182 (peptide)
peptide: Isovaleryl-APEK([AEEA-AEEA-γGlu-C18 diacid])PEEDGSPEELQRYYVELRHYYNWLTRQRY-NH2
SMILES: CC(C)CC(=O)N[C@@H](C)C(=O)N1CCC[C@H]1C(=O)N[C@@H](CCC(=O)O)C(=O)N[C@@H](CCCCNC(=O)COCCOCCNC(=O)COCCOCCNC(=O)CC[C@H](NC(=O)CCCCCCCCCCCCCCCCC(=O)O)C(=O)O)C(=O)N1CCC[C@H]1C(=O)N[C@@H](CCC(=O)O)C(=O)N[C@@H](CCC(=O)O)C(=O)N[C@@H](CC(=O)O)C(=O)NCC(=O)N[C@@H](CO)C(=O)N1CCC[C@H]1C(=O)N[C@@H](CCC(=O)O)C(=O)N[C@@H](CCC(=O)O)C(=O)N[C@@H](CC(C)C)C(=O)N[C@@H](CCC(N)=O)C(=O)N[C@@H](CCCNC(=N)N)C(=O)N[C@@H](Cc1ccc(O)cc1)C(=O)N[C@@H](Cc1ccc(O)cc1)C(=O)N[C@H](C(=O)N[C@@H](CCC(=O)O)C(=O)N[C@@H](CC(C)C)C(=O)N[C@@H](CCCNC(=N)N)C(=O)N[C@@H](Cc1c[nH]cn1)C(=O)N[C@@H](Cc1ccc(O)cc1)C(=O)N[C@@H](Cc1ccc(O)cc1)C(=O)N[C@@H](CC(N)=O)C(=O)N[C@@H](Cc1c[nH]c2ccccc12)C(=O)N[C@@H](CC(C)C)C(=O)N[C@H](C(=O)N[C@@H](CCCNC(=N)N)C(=O)N[C@@H](CCC(N)=O)C(=O)N[C@@H](CCCNC(=N)N)C(=O)N[C@@H](Cc1ccc(O)cc1)C(N)=O)[C@@H](C)O)C(C)C

In this test the target is T1, human neuropeptide Y2 receptor (human, UniProt P49146 1-381).
T1 construct: whole, on cells; also called hNPY2 receptor; hNPY2-R
T1 sequence (looked up): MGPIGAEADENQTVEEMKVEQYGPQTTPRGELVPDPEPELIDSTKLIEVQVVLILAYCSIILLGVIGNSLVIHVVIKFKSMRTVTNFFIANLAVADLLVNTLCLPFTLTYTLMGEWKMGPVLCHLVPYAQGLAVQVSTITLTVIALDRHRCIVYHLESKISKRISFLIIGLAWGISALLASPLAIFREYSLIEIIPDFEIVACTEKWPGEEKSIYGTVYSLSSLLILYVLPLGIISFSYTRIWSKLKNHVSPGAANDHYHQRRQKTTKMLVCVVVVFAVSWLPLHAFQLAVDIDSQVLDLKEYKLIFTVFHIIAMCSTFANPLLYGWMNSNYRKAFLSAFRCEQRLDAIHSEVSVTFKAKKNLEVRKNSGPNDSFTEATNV
Description: radioligand competition (125I-PYY(1-36)), hNPY2R membranes. A digest of the protocol:
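Commercial human Y2 receptor membranes (0.5 μg protein/well) were incubated with peptide for 2 h at room temperature in 50 mM HEPES, 5 mM MgCl₂, 1 mM CaCl₂, pH 7.4, with 0.2% ovalbumin. Bound radioligand was separated on PEI-soaked GF/C filters and counted by scintillation, and IC₅₀ came from nonlinear sigmoidal regression.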
Take B1: the Ki (commonly a measure of affinity in units of concentration, obtained from inhibition or displacement) amounted to 3.85 nM.

B2 returned a Ki of 2.06 nM.

B3 gave a Ki of 3.58 nM.

With B4, the Ki turned out to be 0.67 nM.

Take B5: the Ki was 0.7 nM.

Regarding B6, the Ki was determined as 3.45 nM.
